Experimental data from paper PMC11574021, “CEP192 localises mitotic Aurora-A activity by priming its interaction with TPX2” (The EMBO Journal, 2024).

Assays:
[1] = system: PPP1CA-pT320, PRC1-pT481 and Histone-H3-pS10 in U251 cells; test: Western blot, mitotic phosphorylations (PPP1CA-pT320, PRC1-pT481, Histone-H3-pS10), asynchronous U251; assay type: cell-based, Homo sapiens; details: asynchronous U251, siRNA 48 h
Method: Cells were lysed on ice for 30 min in lysis buffer (50 mM tris pH 8.0, 300 mM NaCl, 0.2%(v/v) NP-40, 10%(v/v) glycerol, protease inhibitor cocktail C, phosphatase inhibitor cocktail 3 (Sigma, 1:200 dilution), 100 nM okadaic acid (Enzo, ALX-350-003-C100)). Lysates were then centrifuged at 14,000 × g, 15 min, 4 °C, the supernatants were transferred to a fresh tube, and the pellet was discarded. Protein concentrations were measured by Bradford assay using Protein Assay Dye Reagent Concentrate (Bio-Rad Laboratories, 5000006). NuPage LDS sample buffer, supplemented with NuPAGE sample reducing agent (Invitrogen) were added prior to boiling for 10 min at 90 °C. Equal amounts of protein, between 8–20 µg/lane, were loaded into pre-cast 4–12% Bis-Tris gels (Invitrogen, NP0322BOX) and proteins separated in 1x MOPS buffer (Invitrogen) and transferred to nitrocellulose membrane (0.45 µM). Nitrocellulose was then blocked in 5% milk (wt/v) in TBS, 0.1% Tween (v/v) (TBST) for 1 h. Primary and secondary antibodies were diluted in 5% milk, TBST and incubated overnight at 4 °C or for 1 h at room temperature, respectively. Species-specific secondary antibodies conjugated to horseradish peroxidase (HRP) were used (anti-Mouse, Cytiva NA931V; anti-Rabbit, Cytiva NA934; anti-Sheep, Jackson 713-035-003). Membranes were washed for 1 h in TBST, changing the buffer five times, after each antibody incubation.
siRNA depletion was carried out by reverse transfection using oligofectamine (Thermo Scientific, 12252011) and lipofectamine RNAiMax (Thermo Scientific, 13778075), according to the manufacturer’s instructions, for U251 and RPE1 cells, respectively. For immunofluorescence, 1 × 10^5 cells were seeded in six-well plates and simultaneously transfected with 60 pmol siRNA duplex and 3 µl transfection reagent diluted in 200 µl Opti-MEM serum-free medium. Growth medium was added to a final volume of 2 ml. For western blotting, 1 × 10^6 cells were seeded in 10 cm dishes and transfected with 300 pmol siRNA duplex and 15 µl transfection reagent diluted in 1000 µl Opti-MEM. […]

[2] = system: Aurora-A-pT288 in U251 cells; test: Western blot densitometry of Aurora-A-pT288, mitotic U251 cells; assay type: cell-based, Homo sapiens; details: mitotic U251 (and RPE1) lysates, siRNA 48 h, in words
Method: For western blotting analysis of mitotic lysates, cells were synchronised in mitosis with 10 µM S-Trityl-L-cysteine (STLC, Bio-Techne, 2191-50), an Eg5 inhibitor, for 20 h prior to collecting by mitotic shake-off. For measuring monopolar spindle diameter and counting centriolar foci by immunofluorescence, cells were treated with 10 µM STLC for 1 h and 4 h prior to fixation, respectively.
As noted in the figures, the following drugs were incubated with cells for 30 min at 37 °C: Aurora-B-i ZM447439 2 µM [10 mM], PLK1-I BI2536 1 µM [10 mM] and Aurora-A-i MLN8237 [5 mM] was used at 250 and 500 nM in U251 and RPE1 cells, respectively. Drugs were resuspended in DMSO to the stock concentrations indicated in square brackets. BI2536 (HY-50698), MLN8237 (HY-10971) and ZM447439 (HY-10128) were all purchased from MedChemExpress. For western blotting, a 20-min pre-treatment with proteasome inhibitor (20 µM MG-132, MerckMillipore, 47490 [20 mM]) was required prior to the addition of DMSO control or kinase inhibitors. This prevented mitotic exit as a consequence of checkpoint override following Aurora-A and Aurora-B inhibitor addition.
Cells were lysed on ice for 30 min in lysis buffer (50 mM tris pH 8.0, 300 mM NaCl, 0.2%(v/v) NP-40, 10%(v/v) glycerol, protease inhibitor cocktail C, phosphatase inhibitor cocktail 3 (Sigma, 1:200 dilution), 100 nM okadaic acid (Enzo, ALX-350-003-C100)). Lysates were then centrifuged at 14,000 × g, 15 min, 4 °C, the supernatants were transferred to a fresh tube, and the pellet was discarded. Protein concentrations were measured by Bradford assay using Protein Assay Dye Reagent Concentrate (Bio-Rad Laboratories, 5000006). NuPage LDS sample buffer, supplemented with NuPAGE sample reducing agent (Invitrogen) were added prior to boiling for 10 min at 90 °C. […]
Densitometric quantification of western blots was also performed in ImageJ. Intensity was measured in a rectangular region of interest (ROI) around each band. […] An adjacent region was also measured to account for background intensity.

Aurora-A = details: from fluorescence polarisation; ref (Burgess et al, [2015]; McIntyre et al, [2017]; Zorba et al, [2014]); cited from earlier work
Method: This is a higher affinity than observed in a previous study that used CEP192 proteins fused to MBP, a large protein tag that might have affected the interaction (Park et al, [2023]). For context, the affinity of Aurora-A for its other key mitotic partners are: TPX2_1-43 (Kd 0.3–2 μM from ITC) and TACC ...

[3] = molecular target: FAM-CEP192 501–533 (human) (UniProt Q8TEP8); test: fluorescence polarisation; direct fluorescence anisotropy: Aurora-A diluted across the plate, 50 nM tracer FAM-CEP192 501–533; 25 mM HEPES pH 7.5, 150 mM NaCl, 2 mM DTT, 5 mM MgCl2, 0.01% Tween 20; 1 h at room temperature
[4] = molecular target: T1, Aurora-A^CAKD (Aurora-A kinase domain, aa 122–403 C290A, C393A), unphosphorylated (human, UniProt O14965 122-403, C290A | C393A); test: fluorescence polarisation; competition: 10 μM unphosphorylated Aurora-A^CAKD preincubated with 100 nM FAM-TPX2 7-43, CEP192 competitor serially diluted; 25 mM HEPES pH 7.5, 150 mM NaCl, 2 mM DTT, 5 mM MgCl2, 0.01% Tween 20; details: both partners purified
T1 construct: Aurora-A kinase domain, human, residues 122-403, variant lacking surface cysteines; also called Aurora-A 122–403 C290A C393A; unphosphorylated Aurora-A^CAKD; source: E. coli RIL, co-expressed with lambda phosphatase, purified (HisTrap, TEV cleavage, SEC); not shown: His6, N-terminal, cleaved
T1 sequence (looked up): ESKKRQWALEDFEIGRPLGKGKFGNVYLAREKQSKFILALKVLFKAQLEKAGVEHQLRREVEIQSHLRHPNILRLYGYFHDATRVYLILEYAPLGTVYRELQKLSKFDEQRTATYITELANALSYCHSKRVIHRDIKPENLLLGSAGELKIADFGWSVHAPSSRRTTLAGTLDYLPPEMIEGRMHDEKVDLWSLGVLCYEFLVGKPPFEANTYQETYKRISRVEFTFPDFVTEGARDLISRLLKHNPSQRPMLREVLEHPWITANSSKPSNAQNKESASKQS

[5] = molecular target: T2, phosphorylated Aurora-A^CAKD (Aurora-A 122–403 C290A C393A, not co-expressed with lambda phosphatase) (human, UniProt O14965 122-403, C290A | C393A, phosphorylated (sites of this preparation not printed in the text shown)); test: cell-based or functional assay
T2 sequence (looked up): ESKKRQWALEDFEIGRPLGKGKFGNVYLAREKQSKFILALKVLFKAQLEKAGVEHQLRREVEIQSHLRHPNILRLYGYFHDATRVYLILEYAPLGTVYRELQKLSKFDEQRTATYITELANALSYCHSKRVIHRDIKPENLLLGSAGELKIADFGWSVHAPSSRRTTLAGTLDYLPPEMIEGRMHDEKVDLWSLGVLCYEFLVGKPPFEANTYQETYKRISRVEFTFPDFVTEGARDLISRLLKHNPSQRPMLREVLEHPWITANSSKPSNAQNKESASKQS

[6] = molecular target: T1, Aurora-A^CAKD (Aurora-A kinase domain, …); test: fluorescence polarisation; competition: 25 μM Aurora-A kinase domain preincubated with 100 nM FAM-TACC3 522-536, CEP192 competitor serially diluted; 25 mM HEPES pH 7.5, 150 mM NaCl, 2 mM DTT, 5 mM MgCl2, 0.01% Tween 20; details: both partners purified
[7] = molecular target: T3, Aurora-A^M3KD (Aurora-A 122–403 C290A C393A D274N) (human, UniProt O14965 122-403, D274N | C290A | C393A); test: ITC; CEP192 442–533 titrated into Aurora-A kinase domain (by the legend); 25 °C; 20 mM tris pH 7.5, 200 mM NaCl, 10% glycerol, 5 mM MgCl2; two repeats; details: both partners purified
T3 construct: Aurora-A kinase domain, human, residues 122-403; also called Aurora-A kinase domain (122–403 C290A C393A D274N); source: E. coli, purified (HisTrap, TEV cleavage, SEC); not shown: His6, N-terminal, cleaved
T3 sequence (looked up): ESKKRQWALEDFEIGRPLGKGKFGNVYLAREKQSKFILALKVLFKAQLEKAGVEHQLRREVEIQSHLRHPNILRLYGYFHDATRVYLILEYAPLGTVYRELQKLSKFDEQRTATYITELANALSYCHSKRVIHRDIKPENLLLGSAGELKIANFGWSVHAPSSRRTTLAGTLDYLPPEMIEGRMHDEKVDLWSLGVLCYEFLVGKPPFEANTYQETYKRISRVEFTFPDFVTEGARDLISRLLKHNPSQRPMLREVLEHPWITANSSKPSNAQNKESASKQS

[8] = molecular target: T4, unphosphorylated Aurora-A CAKD (Homo sapiens, UniProt O14965, C290A/C393A); test: Fluorescence anisotropy competition with FAM-TPX2 7-43; assay type: binding; details: competition with 100 nM FAM-TPX2 7-43, 10 μM unphosphorylated Aurora-A CAKD, n = 3 (Appendix Fig. S4E)
T4 construct: 10 μM Aurora-A kinase domain (phosphorylated or unphosphorylated C290A C393A 122–403); His (N, cleaved yes); made in house; host or cells: E. coli RIL, co-expressed with lambda phosphatase
T4 sequence (O14965 122-403 C290A/C393A): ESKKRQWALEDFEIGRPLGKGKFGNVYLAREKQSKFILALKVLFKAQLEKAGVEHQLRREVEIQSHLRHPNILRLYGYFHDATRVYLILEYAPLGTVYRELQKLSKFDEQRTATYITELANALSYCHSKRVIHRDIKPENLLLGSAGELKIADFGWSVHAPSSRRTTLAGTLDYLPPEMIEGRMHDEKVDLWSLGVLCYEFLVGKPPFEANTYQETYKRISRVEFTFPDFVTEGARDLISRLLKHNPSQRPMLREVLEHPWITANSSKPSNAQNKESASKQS
Method: Assays were performed in 25 mM HEPES pH 7.5, 150 mM NaCl, 2 mM DTT, 5 mM MgCl2, 0.01% Tween 20. For CEP192 and TPX2 competition assays 10 μM Aurora-A kinase domain (phosphorylated or unphosphorylated C290A C393A 122–403) was preincubated on ice with 100 nM FAM-TPX2 7-43 or 100 nM FAM-CEP192 501–533. For TACC3 competition, due to weaker binding, 25 μM Aurora-A kinase domain (phosphorylated or unphosphorylated C290A C393A 122–403) was preincubated with 100 nM FAM-TACC3 522-536. Serial dilutions of competitor (CEP192) were performed in triplicate into a low volume 384-well black plate, before the premixed Aurora-A and tracer were added. A control row included no tracer. Plates were left incubating for 1 h at room temperature before the fluorescence anisotropy was measured using a HIDEX plate reader, with excitation at 485 nm and emission at 535 nm. For direct binding experiments, the assay was performed as above, but the Aurora-A (122–403 C290A C393A or point mutants) was diluted across the plate from high to low concentration, before the addition of 50 nM tracer (FAM-CEP192 501–533) to three replicate rows. Buffer only was added to the control row.
Fluorescence anisotropy data were processed using Microsoft Excel to calculate intensity and anisotropy using the equation listed in (Yeo et al, [2013]). The IC50 and Kd values were calculated using Origin (OriginLab) where the data fitted to a sigmoid and are summarised in Appendix Table S3.

Which “mitotic phosphorylations (PPP1CA-pT320, PRC1-pT481, Histone-H3-pS10)” value [1] does the source give for 5′-GGAUAUGGUUGAUCCUAUAtt-3′ [siBora] here?
The value was “increased levels of mitotic phosphorylations”.

What about the “activation loop phosphorylation (pT288) of Aurora-A in mitotic cell lysates” value [2] of the same molecule?
The value was “no discernible effect”.

Which Kd (Aurora-A) does the source give for “TACC3 519-563: TACC3 fragment, literature affinity (ELKEESFRDPAEVLGTGAEVDYLEQFGTSSFKESALRKQSLYLKF; UniProt Q9Y6A5 519-563, looked up, fragment)” here?
Its Kd is roughly 6 µM.

For “Aurora-A^KD R205A (Aurora-A 122–403 R205A) (from UniProt O14965 122-403) (domain or fragment)”, which Kd [3] is on record?
The Kd was greater than 5 µM.

B1: human CEP192 468–533 L484D (domain or fragment, UniProt Q8TEP8 468-533, looked up)
chain: PQSVVYQNEEGRWVTDDAYYTSFNSKQNLNVSLSDEMNEDFRSGSEAFDLIAQDEEEFNKEHQFIQ
notes: source: E. coli B834 RIL, purified (HisTrap, TEV cleavage, SEC); not shown: His6, N-terminal, cleaved; SUMO, N-terminal, cleaved
Which IC50 [4] does the source give for B1 here?
The IC50 was 19.9 µM.

And the “ADP-Glo, 10 nM phosphorylated Aurora-A^CAKD with kemptide: IC50 of inhibition of kinase activity” value [5]?
Its value is 220 nM.

B2: human CEP192 442–533 (domain or fragment, UniProt Q8TEP8 442-533, looked up)
chain: IWSPTCERRTCECHESIEKNKDKTDLPQSVVYQNEEGRWVTDLAYYTSFNSKQNLNVSLSDEMNEDFRSGSEAFDLIAQDEEEFNKEHQFIQ
notes: Codon-optimised template from GenScript (CEP192 1-1000); source: E. coli B834 RIL, purified (HisTrap, TEV cleavage, SEC); 15N- or 15N/13C-labelled in Rosetta E. coli for NMR; not shown: His6, N-terminal, cleaved; SUMO, N-terminal, cleaved
For B2, which IC50 [6] is on record?
Its IC50 is 5.7 µM.

And the Kd [7]?
The Kd was 72 nM.

And the “stoichiometry N” value [7]?
Its value is 0.67.

What about the IC50 [4] of the same molecule?
Its IC50 is 4.2 µM.

And the IC50 [8]?
Its IC50 is 3.33 µM.

And the “ADP-Glo, 10 nM phosphorylated Aurora-A^CAKD with kemptide: IC50 of partial inhibition of kinase activity” value [5]?
Its value is 32 nM.
